First the molecules themselves.
B1: His-tagged AgGPPS1 truncated protein (SEQ ID NO:16) (enzyme)
chain: MFDFKEYLHSKAISVNEALERAVPLRYPEKIHEAMRYSLLAGGKRIRPILTIAACELVGGSEELAMPTACAMEMIHTMSLIHDDLPSMDNDDLRRGKLTNHKVFGEGTAVLAGDALLSFAFEHIAVSTRKTVASHRVLRVVSELGKAIGSQGVAGGQVADITSEGDPSVGLETLEWIHIHKTAVLLECAVVSGAIIGGASENEIERTGRYARCVGLLFQVVDDILDVTRSSEELGKTAGKDLVSDKATYPKLMGLEKAKEFADELLDRAKEELSCFNPAKAAPLLGLADYIALRQNLEHHHHHH
notes: N-terminally truncated (leader removed) with C-terminal His6 tag, expressed in E. coli; homodimer by gel filtration
B2: His-tagged AgGPPS2 truncated protein (SEQ ID NO:12) (enzyme)
chain: MFDFNKYMDSKAMTVNEALNKAIPLRYPQKIYESMRYSLLAGGKRVRPVLCIAACELVGGTEELAIPTACAIEMIHTMSLMHDDLPCIDNDDLRRGKPTNHKIFGEDTAVTAGNALHSYAFEHIAVSTSKTVGADRILRMVSELGRATGSEGVMGGQMVDIASEGDPSIDLQTLEWIHIHKTAMLLECSVVCGAIIGGASEIVIERARRYARCVGLLFQVVDDILDVTKSSDELGKTAGKDLISDKATYPKLMGLEKAKEFSDELLNRAKGELSCFDPVKAAPLLGLADYVAFRQNLEHHHHHH
notes: as for B1
B3: His-tagged AgGPPS3 truncated protein (SEQ ID NO:20) (enzyme)
chain: MFDFNKYMLSKAMAVTEALDKAIPHSYPQKIHESMRYSLLAGGKRVRPVLCIAACELVGGREELAMPTACAMEMIHTMSLIHDDLPCMDNDDLRRGKPTNHKVFGQDTALLAGDALHAFAFEHIVAFTSKSVGSDGILRAVTELARATGPQGIMGGQIVDIASERDAFVDLQTLEWIHIHKTAVLFECATVCGAIIGGASGDEIERIRRFARYLGLLFQVVDDILDVTKSSEDLGKTAGKDLVSDKATYPKLMGLEKAKGFSLELLNKAKEELSCFDPMKAAPLFGLADYMALRQNLEHHHHHH
notes: as for B1

The data set concerns the molecule itself. The data set can be described thus: gel filtration on calibrated Superdex 200; self-association of the subunit. The procedure: Molecular weight determination and kinetic evaluation. The molecular weight of GPP synthase was determined by gel filtration chromatography on a calibrated XK 16/70 column of Superdex 200 (Amersham Biosciences) as previously described (C. Burke and R. Croteau, J. Biol. Chem. 277:3141-3149, 2002). For kinetic evaluation, the standard prenyltransferase assay was performed (C. Burke and R. Croteau, J. Biol. Chem. 277:3141-3149, 2002) but the reaction was terminated after 4 min. to ensure linearity in the rate measurements. For preparative incubations, the reaction time was extended to 8 min., and all assays contained from 0.25 to 1.0 μg of purified protein.
Take B1: the binding result is reported as “binds”.
As for B2, the entry is “binds”.
For B3, the binding result was “binds”.

The record behind these values is patent US20050204417A1 (WASHINGTON STATE UNIVERSITY RESEARCH FOUNDATION, published 2005).
